Assay results: PMC12455584

Molecular target: T1, scIHF-His (single-chain IHF, ihfA-linker-ihfB-6xHis) internal_change (Salmonella enterica serovar Typhimurium 14028s?) (UniProt P0A1S0)
T1 sequence: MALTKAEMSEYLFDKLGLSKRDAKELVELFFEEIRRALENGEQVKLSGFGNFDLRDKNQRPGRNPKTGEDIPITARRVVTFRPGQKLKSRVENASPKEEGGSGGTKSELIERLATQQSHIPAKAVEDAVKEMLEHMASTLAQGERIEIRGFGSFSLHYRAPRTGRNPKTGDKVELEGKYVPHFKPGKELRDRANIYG
Experiment: EMSA
Conditions: EMSA: 25 mM Tris pH 8, 75 mM NaCl, 10% glycerol, 0.5 mM DTT, 0.5 mM EDTA, 1 ug poly(dIdC), 0.1 mg/ml BSA, 0.87 pmol DNA in 20 ul, 37 C 10 min; gel 4-15% PAGE …

In the case of “CCCTCGTGTACCATTGTTTACTTTTTGATCTAAAAATTACATCAAATGAACACAAAAAACGGTATAAAAAACGCTC (double strand) [intA promoter IHF BS(+)]”, the binding is reported as “binds”.
